Reference: US7888090B2, “Mutants of O6-alkylguanine-DNA alkyltransferase” (Ecole Polytechnique Federale de Lausanne, priority 2004, dated 2011)

experiment: BG-Cy3 activity assay (reaction rate of AGT mutants); format: biochemical; details: divided by value for wild type hAGT; periplasmic extracts (x.)
Experimental: Reactivity against DNA-based substrates measured with a BG-Cy3 assay: BG-Cy3 is prepared by reacting the previously described O^6-(4-aminomethyl-benzyl)guanine (Keppler et al., NatureBiotechnol. 21:86-89, 2003) with the commercially available N-hydroxysuccinimide ester of Cy3, (Cy3-NHS, Amersham). The coupling reaction is performed at ambient temperature in N,N-dimethylformamide in the presence of 1 eq. of triethylamine. The BG-Cy3 conjugate is purified by reversed-phase HPLC on a C18-column by using linear gradients from 0.1% trifluoroacetic acid to acetonitrile. After solvent evaporation BG-Cy3 is dissolved in dimethyl sulfoxide and stored at −20° C. For measuring the reactivity with DNA-based substrates, a reaction mixture containing different concentrations (0 to 5 µM) of oligonucleotide SEQ ID NO:2 (modified in position 14), GST-AGT fusion protein at 0.2 µM and BG-Cy3 at […] in reaction buffer (50 mM HEPES, pH 7.2, 1 mM DTT, 200 mg/ml BSA) is incubated in microtiterplates. Fluorescence of the Cy3 derivative (excitation 519 nm, emission at 572 nm) is measured on a Spectramax Gemini plate reader (Molecular Devices).
The amplified products are cloned in fusion to the g3 gene of filamentous phage in the vector pAK100 via SfiI restriction sites. The resulting gene libraries are used for phage display as described under Example 4. The mutants of the libraries are selected with 5 to 50 nM of BG-Bt for 10 min. Selected mutants are subcloned into pGEX using the primers SEQ ID NO:3 and SEQ ID NO:13. The reaction rate of mutant AGTs is determined as described in Example 6, Reactivity against DNA-based substrates (BG-Cy3 assay).
For the activity assay purified GST fusion proteins were used for mutants marked with “p.” (prepared as described under Example 1); periplasmic extracts were used for mutants marked with “x.” (prepared as described under Example 2).

Molecule | Relative reaction rate
Lys8Thr, Thr127Ala, Ala154Thr, His174Arg: AGT mutant having all mutations of AGTM and additionally those listed (protein, UniProt P16455 1-207, looked up, variant K8T C62A Q115S Q116H K125A R128A G131K G132T M134L R135S C150N S151I S152N A154T N157G S159E H174R del183-207) Methylated-DNA--protein-cystei …: MDKDCEMTRTTLDSPLGKLELSGCEQGLHEIKLLGKGTSAADAVEVPAPAAVLGGPEPLMQATAWLNAYFHQPEAIEEFPVPALHHPVFQQESFTRQVLWKLLKVVKFGEVISYSHLAALAGNPAAAAAVKTALSGNPVPILIPCHRVVNINGTVGGYEGGLAVKEWLLAHEGRRLGKPGLG | 15.66

same assay, conditions: divided by value for wild type hAGT; purified GST fusion proteins (p.)

Molecule | Relative reaction rate
Lys32lle, Leu33Phe, Asn150Gly, lle151Gly, Asn152Asp, Ala154Asp: AGT mutant having all mutations of AGTM and additionally those listed (protein, UniProt P16455 1-207, looked up, variant K32I L33F C62A Q115S Q116H K125A A127T R128A G131K G132T M134L R135S C150G S151G S152D A154D N157G S159E del183-207) Methylated-DNA--protein-cystei …: MDKDCEMKRTTLDSPLGKLELSGCEQGLHEIIFLGKGTSAADAVEVPAPAAVLGGPEPLMQATAWLNAYFHQPEAIEEFPVPALHHPVFQQESFTRQVLWKLLKVVKFGEVISYSHLAALAGNPAATAAVKTALSGNPVPILIPCHRVVGGDGDVGGYEGGLAVKEWLLAHEGHRLGKPGLG | 45.45
Lys32lle, Leu33Phe, Ala154Thr: AGT mutant having all mutations of AGTM and additionally those listed (protein, UniProt P16455 1-207, looked up, variant C62A Q115S Q116H K125A A127T R128A G131K G132T M134L R135S C150N S151I S152N N157G S159E del183-207 K32I L33F A154T) Methylated-DNA--protein-cystei …: MDKDCEMKRTTLDSPLGKLELSGCEQGLHEIIFLGKGTSAADAVEVPAPAAVLGGPEPLMQATAWLNAYFHQPEAIEEFPVPALHHPVFQQESFTRQVLWKLLKVVKFGEVISYSHLAALAGNPAATAAVKTALSGNPVPILIPCHRVVNINGTVGGYEGGLAVKEWLLAHEGHRLGKPGLG | 33.89
Asn150Val, lle151Ser, Asn152Arg, Gly153Asp, Ala154Asp: AGT mutant having all mutations of AGTM and additionally those listed (protein, UniProt P16455 1-207, looked up, variant C62A Q115S Q116H K125A A127T R128A G131K G132T M134L R135S C150V S152R G153D A154D N157G S159E del183-207) Methylated-DNA--protein-cystei …: MDKDCEMKRTTLDSPLGKLELSGCEQGLHEIKLLGKGTSAADAVEVPAPAAVLGGPEPLMQATAWLNAYFHQPEAIEEFPVPALHHPVFQQESFTRQVLWKLLKVVKFGEVISYSHLAALAGNPAATAAVKTALSGNPVPILIPCHRVVVSRDDVGGYEGGLAVKEWLLAHEGHRLGKPGLG | 21.26
Asn150Glu, lle151Gly, Asn152Glu, Ala154Arg: AGT mutant having all mutations of AGTM and additionally those listed (protein, UniProt P16455 1-207, looked up, variant C62A Q115S Q116H K125A A127T R128A G131K G132T M134L R135S C150E S151G S152E A154R N157G S159E del183-207) Methylated-DNA--protein-cystei …: MDKDCEMKRTTLDSPLGKLELSGCEQGLHEIKLLGKGTSAADAVEVPAPAAVLGGPEPLMQATAWLNAYFHQPEAIEEFPVPALHHPVFQQESFTRQVLWKLLKVVKFGEVISYSHLAALAGNPAATAAVKTALSGNPVPILIPCHRVVEGEGRVGGYEGGLAVKEWLLAHEGHRLGKPGLG | 18.42
Asn150Val, lle151Asn, Asn152Asp, Gly153Leu, Ala154Asp: AGT mutant having all mutations of AGTM and additionally those listed (protein, UniProt P16455 1-207, looked up, variant C62A Q115S Q116H K125A A127T R128A G131K G132T M134L R135S C150V S151N S152D G153L A154D N157G S159E del183-207) Methylated-DNA--protein-cystei …: MDKDCEMKRTTLDSPLGKLELSGCEQGLHEIKLLGKGTSAADAVEVPAPAAVLGGPEPLMQATAWLNAYFHQPEAIEEFPVPALHHPVFQQESFTRQVLWKLLKVVKFGEVISYSHLAALAGNPAATAAVKTALSGNPVPILIPCHRVVVNDLDVGGYEGGLAVKEWLLAHEGHRLGKPGLG | 15.67
Asn150Glu, lle151Ser, Asn152His, Ala154Lys: AGT mutant having all mutations of AGTM and additionally those listed (protein, UniProt P16455 1-207, looked up, variant C62A Q115S Q116H K125A A127T R128A G131K G132T M134L R135S C150E S152H A154K N157G S159E del183-207) Methylated-DNA--protein-cystei …: MDKDCEMKRTTLDSPLGKLELSGCEQGLHEIKLLGKGTSAADAVEVPAPAAVLGGPEPLMQATAWLNAYFHQPEAIEEFPVPALHHPVFQQESFTRQVLWKLLKVVKFGEVISYSHLAALAGNPAATAAVKTALSGNPVPILIPCHRVVESHGKVGGYEGGLAVKEWLLAHEGHRLGKPGLG | 15.43
